The values that follow come from article PMC9143606, “Reactivity of a Recombinant Esterase from Thermus thermophilus HB27 in Aqueous and Organic Media” (Microorganisms, 2022).

Holding throughout (experiment): purified protein
Holding throughout (type): biochemical, Thermus thermophilus
Common to all, as to details: pH 7.5, 47.5 °C, 10% (v/v) isopropanol, enzyme prediluted in 50 mM phosphate

Substrate in data set [1]: CCCCCCCCCCCC(=O)Oc1ccc([N+](=O)[O-])cc1
Substrate in data set [2]: CCCCCCCC(=O)Oc1ccc([N+](=O)[O-])cc1
Substrate in data set [3]: CCCCCCCCCCCCCC(=O)Oc1ccc([N+](=O)[O-])cc1
Substrate in data set [4]: CCCCCCCCCC(=O)Oc1ccc([N+](=O)[O-])cc1

B1: KLEST-3S esterase (E34Tt, N-terminally truncated ∆N16 variant) (Thermus thermophilus HB27) (protein)
chain: QGLEAFWKAVEVPGGVCADGSPYRFYVSPGDPRKVVVDFQGGGACWDQATCGPESRTYRKRVDVQELYLAQGIYNRMSVANPFFGWTHVFVPYCTGDLHVGRATVDYGGFKVHHQGARNAQAALEYVFRNHTNPERVFVTGCSAGAYGAVLWADKILATYKNAQIAVCGDAGVGVVTEDFPGFTAWNPRLPELPGLSSPPKVSEIYRALAQAYPKAVLAQYTTLLDGTQIYFYALMKKEAAPSEATAREWAVAAERAVGFPASEANYTYYLAPGSQHCILPRPELYTLKVGEVSFLDWLRALAEGRTPPRVRP
notes: ∆N16 (putative secretion signal removed; printed cleavage site between residues 16 and 17); secreted by Kluyveromyces lactis NRRL-Y1140; cell-free medium concentrated by ultrafiltration, partially purified, essentially free of contaminant proteins
The Km is the concentration of substrate that gives half-maximal velocity. As usually defined, the kcat/Km is the turnover number divided by the Michaelis constant. For the protein B1, the Km came out at 140 ± 30 µM in the data set “purified protein [1]”, 130 ± 30 µM in “purified protein [2]”, 190 ± 40 µM in “purified protein [3]” and 90 ± 10 µM in the data set “purified protein [4]”. In addition, the kcat/Km in “purified protein [1]” was found to be 2.34e+07 M⁻¹ s⁻¹; in the data set “purified protein [2]”, 3.95e+07 M⁻¹ s⁻¹; in the data set “purified protein [3]”, 322000 M⁻¹ s⁻¹; in the data set “purified protein [4]”, 4.59e+07 M⁻¹ s⁻¹.
